From patent US20220332804A1 (CSL INNOVATION, published 2022) come the findings set out here.

Common to all, as to assay: SPR, antibody captured, C2 as analyte;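 note: biacore at 37 °C, anti-C2 mAbs held by immobilised goat anti-human IgG, C2 alanine or serine mutants injected, double-referenced sensorgrams fitted to a 1:1 kinetic or steady-state model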
One experiment addresses T1, human C2 G677A (human, UniProt P06681 21-752).
T1 sequence: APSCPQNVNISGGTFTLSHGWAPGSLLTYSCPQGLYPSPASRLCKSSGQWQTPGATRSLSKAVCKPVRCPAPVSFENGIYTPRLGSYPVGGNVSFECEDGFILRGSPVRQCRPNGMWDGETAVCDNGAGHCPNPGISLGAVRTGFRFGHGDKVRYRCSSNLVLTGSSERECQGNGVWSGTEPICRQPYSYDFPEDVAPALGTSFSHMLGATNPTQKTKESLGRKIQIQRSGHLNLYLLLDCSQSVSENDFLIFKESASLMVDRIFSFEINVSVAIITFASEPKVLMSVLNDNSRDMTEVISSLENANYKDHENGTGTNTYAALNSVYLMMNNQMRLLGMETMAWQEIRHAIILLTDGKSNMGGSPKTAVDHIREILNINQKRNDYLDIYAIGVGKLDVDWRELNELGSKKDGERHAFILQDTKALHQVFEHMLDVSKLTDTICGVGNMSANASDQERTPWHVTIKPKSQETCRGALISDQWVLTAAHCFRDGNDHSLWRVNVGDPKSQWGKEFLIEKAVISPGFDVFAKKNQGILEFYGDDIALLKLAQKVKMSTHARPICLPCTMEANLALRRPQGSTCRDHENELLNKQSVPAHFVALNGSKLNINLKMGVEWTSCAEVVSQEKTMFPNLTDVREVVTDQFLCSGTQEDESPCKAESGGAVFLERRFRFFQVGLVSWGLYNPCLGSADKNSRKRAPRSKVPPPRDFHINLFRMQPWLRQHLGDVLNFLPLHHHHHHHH

Another experiment addresses T2, human C2 D441A (human, UniProt P06681 21-752).
T2 sequence: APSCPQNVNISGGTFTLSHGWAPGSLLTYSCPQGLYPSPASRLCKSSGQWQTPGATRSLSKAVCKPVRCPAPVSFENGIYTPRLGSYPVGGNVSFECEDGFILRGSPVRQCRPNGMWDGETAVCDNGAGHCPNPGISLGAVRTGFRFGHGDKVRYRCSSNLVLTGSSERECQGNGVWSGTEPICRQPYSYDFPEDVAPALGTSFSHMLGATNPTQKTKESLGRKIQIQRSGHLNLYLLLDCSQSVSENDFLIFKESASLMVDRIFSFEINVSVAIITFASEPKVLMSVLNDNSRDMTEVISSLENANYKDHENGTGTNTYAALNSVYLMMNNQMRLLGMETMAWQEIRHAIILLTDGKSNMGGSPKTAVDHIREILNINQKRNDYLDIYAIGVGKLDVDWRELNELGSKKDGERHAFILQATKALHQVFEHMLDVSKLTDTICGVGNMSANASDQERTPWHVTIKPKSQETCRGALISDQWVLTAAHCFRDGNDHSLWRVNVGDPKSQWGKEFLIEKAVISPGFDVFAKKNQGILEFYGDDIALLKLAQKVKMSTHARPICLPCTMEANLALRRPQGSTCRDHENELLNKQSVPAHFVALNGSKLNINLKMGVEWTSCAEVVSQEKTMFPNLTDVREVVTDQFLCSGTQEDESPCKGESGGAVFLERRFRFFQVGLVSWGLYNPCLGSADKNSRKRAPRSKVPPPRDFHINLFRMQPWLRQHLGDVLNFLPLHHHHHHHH

The target in the next experiment is T3, human C2 D454A (human, UniProt P06681 21-752).
T3 sequence: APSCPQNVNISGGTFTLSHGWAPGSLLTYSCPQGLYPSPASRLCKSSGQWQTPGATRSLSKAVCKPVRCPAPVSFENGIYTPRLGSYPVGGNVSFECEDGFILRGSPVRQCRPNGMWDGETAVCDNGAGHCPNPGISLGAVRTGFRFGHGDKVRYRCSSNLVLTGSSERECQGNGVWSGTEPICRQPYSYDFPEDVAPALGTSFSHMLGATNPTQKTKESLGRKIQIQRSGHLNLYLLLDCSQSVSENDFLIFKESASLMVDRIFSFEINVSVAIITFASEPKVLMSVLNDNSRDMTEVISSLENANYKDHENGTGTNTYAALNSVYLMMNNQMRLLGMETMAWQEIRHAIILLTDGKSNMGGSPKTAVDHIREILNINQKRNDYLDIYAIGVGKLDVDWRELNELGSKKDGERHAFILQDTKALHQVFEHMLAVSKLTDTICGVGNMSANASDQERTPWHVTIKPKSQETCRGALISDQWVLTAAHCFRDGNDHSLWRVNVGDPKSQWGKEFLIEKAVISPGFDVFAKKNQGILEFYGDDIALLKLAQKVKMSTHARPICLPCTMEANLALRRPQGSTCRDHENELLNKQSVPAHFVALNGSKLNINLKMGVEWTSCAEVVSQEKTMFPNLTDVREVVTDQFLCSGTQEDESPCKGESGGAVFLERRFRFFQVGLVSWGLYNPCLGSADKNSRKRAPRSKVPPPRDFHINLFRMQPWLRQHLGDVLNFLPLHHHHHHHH

A further experiment concerns the target T4, human C2 F270A (human, UniProt P06681 21-752).
T4 sequence: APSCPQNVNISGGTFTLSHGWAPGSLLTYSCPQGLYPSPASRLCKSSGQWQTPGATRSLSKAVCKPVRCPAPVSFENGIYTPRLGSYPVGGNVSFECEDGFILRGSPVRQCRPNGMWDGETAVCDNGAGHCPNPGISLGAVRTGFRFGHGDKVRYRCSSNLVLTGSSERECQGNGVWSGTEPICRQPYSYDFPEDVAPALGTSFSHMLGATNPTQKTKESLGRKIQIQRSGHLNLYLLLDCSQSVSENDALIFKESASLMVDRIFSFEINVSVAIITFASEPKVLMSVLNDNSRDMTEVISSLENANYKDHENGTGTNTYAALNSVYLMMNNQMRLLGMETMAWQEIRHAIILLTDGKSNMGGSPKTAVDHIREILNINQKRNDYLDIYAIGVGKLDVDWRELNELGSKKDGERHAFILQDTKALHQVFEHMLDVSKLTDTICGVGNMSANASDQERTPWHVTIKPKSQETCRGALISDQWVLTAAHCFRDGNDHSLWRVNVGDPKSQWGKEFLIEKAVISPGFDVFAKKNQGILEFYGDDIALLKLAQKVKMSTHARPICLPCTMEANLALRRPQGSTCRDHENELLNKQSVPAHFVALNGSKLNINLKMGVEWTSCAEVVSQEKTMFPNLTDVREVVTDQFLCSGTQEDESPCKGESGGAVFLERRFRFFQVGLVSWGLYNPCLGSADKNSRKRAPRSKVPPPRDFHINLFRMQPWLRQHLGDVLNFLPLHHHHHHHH

Procedure for human C2 D441A: (§1) Surface plasmon resonance (SPR, Biacore) was used for all binding affinity analyses. In brief, goat anti-human IgG was directly immobilised onto the carboxymethyl dextran surface of CM5 sensorchips to approximately 12,000 RU using standard NHS/EDC chemistry at pH 5. The immobilised antibody surface was pre-conditioned with ten injections of polyclonal human IgG (Privigen 60 s) prepared at 1 μg/mL. Ligands (anti-C2 mAbs) were captured at the beginning of each cycle as described below. An adjacent spot or flow cell in which only Polyclonal IgG was capture was used as a reference surface. The goat anti-human IgG Fc antibody surface was regenerate in 100 mM H3PO4, injected for 45 seconds at the end of each cycle. Experiments were performed at 37° C. and the flow rate of each experiment was kept constant at 30 μL/min.
(§2) Sensogram data was double-referenced against a reference anti-IgG surface (i.e. minus anti-C2 mAb) and blank buffer injections obtained within each experiment. The binding data was fit to 1:1 (kinetic or steady-state) model using local Rmax and null refraction index (RI=0) when appropriate. Buffers and solutions were filtered (0.22 μm) prior to use.
Procedure for human C2 D454A: as §1, §2
Procedure for human C2 F270A: as §1, §2
Procedure for human C2 G677A: as §1, §2

B1: RF16-242 (antibody, human IgG4 S228P, lambda, V domains shown)
VH: EVQLLQSGAEVKKPGESLKISCKGSGYSFTSYWIGWVRQMPGKGLEWMGIIYPGDSDTRYSPSFQGQVTISADKSISTAYLQWSSLKASDTAMYYCARRGHYGDYFDYWGQGTLVTVSS
VL: SYELTQPPSVSVSPGQTARITCSGDALPKKYAYWYHQKSGQAPVLVIYEDRRRPSEIPERFSGSSSGTMATLTITGAQVEDEGVYFCYSRDRAGNQRVFGGGTQLTVLG
notes: pH-dependent anti-C2 antibody from a phage display library
On to B1, for which the Kd with human C2 G677A was 6.8 nM; with human C2 D441A, 114 nM; with human C2 D454A, 35.4 nM; in the experiment with human C2 F270A, 104 nM.

A word on the Kd: it is the concentration at which binding is half-saturated. Higher therefore signals lower affinity.
